Measurements: patent US20140314744A1 (NEOTOPE BIOSCIENCES, published 2014)

Key:
[1] = molecular target: T1, Recombinant human laminin-α4 (R&D systems) (human, UniProt Q16363-2 826-1816); assay: SPR (Biacore T200), MCAM IgG1-2A captured by anti-Fc IgG, laminin in solution
T1 construct: also called laminin 4A chain; laminin A4 (α4) chain
T1 sequence (looked up): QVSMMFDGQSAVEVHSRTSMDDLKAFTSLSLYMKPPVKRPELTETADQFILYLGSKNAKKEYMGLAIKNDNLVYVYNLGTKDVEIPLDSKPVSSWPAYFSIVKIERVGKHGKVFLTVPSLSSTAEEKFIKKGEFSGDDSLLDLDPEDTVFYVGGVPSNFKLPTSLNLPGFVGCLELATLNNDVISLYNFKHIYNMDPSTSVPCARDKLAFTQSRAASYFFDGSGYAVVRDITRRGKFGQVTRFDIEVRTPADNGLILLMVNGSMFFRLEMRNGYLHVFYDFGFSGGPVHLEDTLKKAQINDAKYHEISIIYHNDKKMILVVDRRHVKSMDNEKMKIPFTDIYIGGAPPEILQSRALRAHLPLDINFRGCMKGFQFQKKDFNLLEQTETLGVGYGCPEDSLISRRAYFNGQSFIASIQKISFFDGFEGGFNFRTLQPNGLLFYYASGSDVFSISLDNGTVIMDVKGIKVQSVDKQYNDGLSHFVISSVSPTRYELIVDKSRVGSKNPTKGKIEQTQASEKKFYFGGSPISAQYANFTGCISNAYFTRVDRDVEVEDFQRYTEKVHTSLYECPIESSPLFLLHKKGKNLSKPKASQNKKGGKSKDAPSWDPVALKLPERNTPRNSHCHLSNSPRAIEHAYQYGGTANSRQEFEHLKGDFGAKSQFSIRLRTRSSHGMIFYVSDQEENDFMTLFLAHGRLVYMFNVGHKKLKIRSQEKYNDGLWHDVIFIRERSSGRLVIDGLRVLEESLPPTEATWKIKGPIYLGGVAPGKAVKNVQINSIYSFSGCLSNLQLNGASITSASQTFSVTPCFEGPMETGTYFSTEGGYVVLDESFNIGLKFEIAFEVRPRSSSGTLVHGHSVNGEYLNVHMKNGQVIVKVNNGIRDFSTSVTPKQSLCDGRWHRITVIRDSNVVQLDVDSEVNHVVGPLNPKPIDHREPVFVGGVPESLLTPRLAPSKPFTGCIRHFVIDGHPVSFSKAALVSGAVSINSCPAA
Protocol: The binding affinity of the human laminin-α4 to human MCAM IgG1-2A was measured by Surface Plasmon Resonance on a Biacore T200 machine. Human Fc-specific F(ab′)₂ IgG (Jackson Laboratories) was immobilized on a CM5 chip using amine coupling. The four flow cells of the CM5 chips dextran surface are activated by a 7 min injection of freshly prepared 1:1 50 mM NHS: EDC at a flow rate of 5 μl/min. 70 μl IgG solution (pH 4.5) was injected for 3 min to a density of up to 3 000 RU. The coupling is then blocked by a 7 min injection of 1M ethanolamine to deactivate residual reactive sites. Recombinant human Fc-tagged MCAM IgG1-2A in degassed and filtered HBS-P buffer containing 12 mg/ml BSA and 12 mg/ml carboxy-methylated dextran sodium salt was captured by anti-Fc IgG to a capture level 1560 RU. Recombinant human Fc-tagged MCAM IgG1-2A was centrifuged at 14 000 rpm for 5 min at 4° C. before injection for 20 min at a flow rate of 5 μl/min over the anti-Fc IgG containing surface. Flow cell 1 was left free of IgG to serve as a control surface. One flow cell was used to capture recombinant human IgG1 Fc (R&D systems) to serve as a negative control. […] Buffer injections served as negative control. Data evaluation: Data from the buffer injections and the control surface were subtracted to remove artifacts. […]

[2] = molecular target: T2, Recombinant human laminin 511 (Biolamina) (human, UniProt O15230 36-3695; P07942 22-1786; P11047 34-1609); assay: SPR (Biacore T200)
T2 construct: Trimer α5β1γ1, bought; negative control

[3] = molecular target: T3, murine MCAM-Fc (extracellular domain of murine MCAM fused to human IgG) (mouse, UniProt Q8R2Y2 24-563); assay: ForteBio Octet Red, anti-human IgG Fc biosensor loaded with mouse MCAMhFc (5 ug/ml), dipped into clone 17 (5 ug/ml) or SP2 media
T3 construct: extracellular domain; Produced in CHO cells; also called mouse MCAM-Fc protein; full length mouse MCAMhFc protein; not shown: human IgG (Fc) part
T3 sequence (looked up): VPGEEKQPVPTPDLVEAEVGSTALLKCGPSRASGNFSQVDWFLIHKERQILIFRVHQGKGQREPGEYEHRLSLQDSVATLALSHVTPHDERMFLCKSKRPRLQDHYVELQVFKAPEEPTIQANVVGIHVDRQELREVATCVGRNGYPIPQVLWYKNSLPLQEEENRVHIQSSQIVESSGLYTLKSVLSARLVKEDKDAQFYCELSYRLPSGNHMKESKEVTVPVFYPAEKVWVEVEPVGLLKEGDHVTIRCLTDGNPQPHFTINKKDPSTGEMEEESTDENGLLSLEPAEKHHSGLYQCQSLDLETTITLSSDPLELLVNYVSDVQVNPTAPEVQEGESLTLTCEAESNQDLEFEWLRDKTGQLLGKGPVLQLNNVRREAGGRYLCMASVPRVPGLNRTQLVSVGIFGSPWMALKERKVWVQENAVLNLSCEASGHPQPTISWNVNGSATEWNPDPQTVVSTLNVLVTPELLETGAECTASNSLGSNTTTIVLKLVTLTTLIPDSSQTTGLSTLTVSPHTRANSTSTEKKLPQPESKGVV
Text: (§1) The following protocol was used: ForteBio Domain Mapping Protocol. ForteBio anti-human IgG Fc biosensors were used to immobilize various mouse MCAMhFc domains including full length mouse MCAMhFc protein on to biosensor surface. These sensors were dipped into either clone 15 or 17 MCAM specific antibody for detection of binding to these domains or full length protein. After loading these samples into a black 96 well plate, the Octet Red was programmed as follows: 60 seconds for baseline #1; 180 seconds for loading various domains; 60 seconds for baseline #2; 180 seconds for association of antibody to domain; and 240 seconds for dissociation of antibody from domain.
(§2) For FIG. 10A-B, clones 15 and 17 were tested against the following protein samples (all have human IgG Fc tag): […]

[4] = molecular target: T4, Murine MCAM domain 1 (Ig1) with human IgG Fc tag (mouse, UniProt Q8R2Y2 24-131, limits assumed); assay: ForteBio Octet Red, domains on anti-human IgG Fc biosensors
T4 construct: domain: domain 1 (Ig1); also called MCAM Fc domain 1; not shown: human IgG Fc tag
T4 sequence (looked up): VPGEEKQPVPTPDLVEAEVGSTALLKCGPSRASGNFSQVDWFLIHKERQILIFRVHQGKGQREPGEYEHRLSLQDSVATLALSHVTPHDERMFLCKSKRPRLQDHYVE
Text: as §1

[5] = molecular target: T5, Murine MCAM domain 1 and 2 (Ig1-2A) with human IgG Fc tag (mouse, UniProt Q8R2Y2 24-244, limits assumed); assay: as above
T5 construct: domain: domain 1 and 2 (Ig1-2A); also called MCAM Fc domains 1 and 2; not shown: human IgG Fc tag
T5 sequence (looked up): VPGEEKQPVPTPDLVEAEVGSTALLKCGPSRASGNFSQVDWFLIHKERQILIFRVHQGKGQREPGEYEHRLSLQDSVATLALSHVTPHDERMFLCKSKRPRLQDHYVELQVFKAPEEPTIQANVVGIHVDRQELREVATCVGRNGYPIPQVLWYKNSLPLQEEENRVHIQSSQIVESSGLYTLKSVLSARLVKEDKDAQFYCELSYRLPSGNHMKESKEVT
Text: as §1

Ig2 domain = molecular target: T6, Ig2 domain (mouse, UniProt Q8R2Y2); assay: ForteBio Octet Red, anti-human IgG Fc biosensor loaded with the Ig2 domain hFc protein, dipped into clone 17 or SP2 media
T6 construct: immunoglobulin domain 2 alone; also called Murine MCAM domain 2 (Ig2)
T6 sequence (Fc fusion chain, looked up): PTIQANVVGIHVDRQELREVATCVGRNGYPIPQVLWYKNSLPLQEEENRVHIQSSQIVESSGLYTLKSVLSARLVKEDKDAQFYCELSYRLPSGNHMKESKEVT
Text: as §1, §2

[6] = molecular target: T7, mouse MCAM (full length, on transfected CHO cells) (mouse, UniProt Q8R2Y2 24-648); assay: flow cytometry on MCAM transfected cells mixed with CFSE-labelled untransfected cells
T7 construct: whole, on cells; also called murine MCAM; mouse MCAM transfected CHO cells
T7 sequence (looked up): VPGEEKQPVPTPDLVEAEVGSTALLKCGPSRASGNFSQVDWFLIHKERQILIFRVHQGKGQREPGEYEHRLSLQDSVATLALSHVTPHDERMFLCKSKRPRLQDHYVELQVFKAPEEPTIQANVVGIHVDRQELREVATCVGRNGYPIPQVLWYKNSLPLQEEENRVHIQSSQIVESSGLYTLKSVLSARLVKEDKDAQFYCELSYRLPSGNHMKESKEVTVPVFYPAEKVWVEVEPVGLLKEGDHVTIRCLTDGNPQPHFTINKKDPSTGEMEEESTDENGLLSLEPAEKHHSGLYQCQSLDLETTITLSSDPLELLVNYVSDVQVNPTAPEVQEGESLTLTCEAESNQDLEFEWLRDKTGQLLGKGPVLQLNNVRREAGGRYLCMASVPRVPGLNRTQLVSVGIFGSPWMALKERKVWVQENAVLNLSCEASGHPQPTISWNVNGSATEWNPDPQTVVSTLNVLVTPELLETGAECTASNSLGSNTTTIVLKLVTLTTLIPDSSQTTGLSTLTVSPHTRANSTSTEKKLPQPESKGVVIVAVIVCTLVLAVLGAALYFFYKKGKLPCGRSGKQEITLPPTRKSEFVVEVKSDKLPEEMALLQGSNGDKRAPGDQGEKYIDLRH
Protocol: (§3) MCAM-Fc was generated by fusing the extracellular domain of murine MCAM to human IgG and produced in CHO cells using standard techniques. Lou/M rats were immunized with 100 μg of MCAM-Fc protein in CFA (1:1 volume). Rats were boosted two times at two week intervals with MCAM-Fc protein in incomplete Freund's adjuvant (IFA) (1:1 volume). Hybridomas were generated from immunized rats using standard protocols and clones were selected by Clonepix. CHO cells were transfected with the full length murine MCAM gene and selected for stable expression using neomycin and standard techniques. Parental CHO cells (MCAM negative) were fluorescently labeled with carboxyfluorescein succinimidyl ester (CFSE) using standard techniques and mixed at a 1:1 ratio with unlabeled MCAM transfected CHO cells. Hybridoma supernatants were incubated with this mixture of cells for 30 minutes and binding of potential MCAM specific antibodies was detected with a fluorescently labeled anti-rat secondary antibody (Jackson Immuno) by flow cytometry.
(§4) Monoclonal antibodies against mouse MCAM were generated as described in Materials and Methods above. The specific binding between the monoclonal antibody and MCAM was confirmed by assessing the monoclonal antibody's ability to bind to cells transfected with either mouse or human MCAM. For this, untransfected cells were labeled with carboxyfluorescein succinimidyl ester (CFSE) and mixed with unlabeled MCAM transfected cells. Untransfected cells (in blue) could therefore be differentiated.

[7] = molecular target: T8, human MCAM (on transfected cells) (human, UniProt P43121 24-646); assay: as above
T8 construct: Cells transfected with human MCAM; also called CD146; MUC18
T8 chain: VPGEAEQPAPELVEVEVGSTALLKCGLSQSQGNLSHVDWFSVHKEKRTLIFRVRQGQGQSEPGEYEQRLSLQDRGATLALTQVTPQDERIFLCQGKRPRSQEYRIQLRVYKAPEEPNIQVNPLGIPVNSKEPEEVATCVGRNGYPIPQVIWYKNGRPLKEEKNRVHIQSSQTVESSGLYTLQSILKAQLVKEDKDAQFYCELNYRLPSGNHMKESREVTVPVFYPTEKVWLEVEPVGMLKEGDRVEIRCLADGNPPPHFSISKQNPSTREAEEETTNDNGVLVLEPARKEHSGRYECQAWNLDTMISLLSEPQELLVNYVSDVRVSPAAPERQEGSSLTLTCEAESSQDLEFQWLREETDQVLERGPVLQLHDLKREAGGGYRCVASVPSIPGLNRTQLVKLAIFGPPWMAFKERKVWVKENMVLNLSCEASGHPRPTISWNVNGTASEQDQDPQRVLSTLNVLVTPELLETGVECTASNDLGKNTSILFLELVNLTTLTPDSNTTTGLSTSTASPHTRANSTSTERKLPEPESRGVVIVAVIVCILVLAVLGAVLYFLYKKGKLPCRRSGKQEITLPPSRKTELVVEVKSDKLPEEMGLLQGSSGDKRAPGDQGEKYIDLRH
Protocol: as §3, §4

B1: Recombinant human Fc-tagged MCAM IgG1-2A (Fc fusion)
chain: PRVAGVPGEAEQPAPELVEVEVGSTALLKCGLSQSQGNLSHVDWFSVHKEKRTLIFRVRQGQGQSEPGEYEQRLSLQDRGATLALTQVTPQDERIFLCQGKRPRSQEYRIQLRVYKAPEEPNIQVNPLGIPVNSKEPEEVATCVGRNGYPIPQVIWYKNGRPLKEEKNRVHIQSSQTVESSGLYTLQSILKAQLVKEDKDAQFYCELNYRLPSGNHMKESREVT
notes: also called human MCAM IgG1-2A; MCAM Fc domains 1 and 2; not shown: human Fc tag
Kd [1]: 60 nM | binding result [2]: no binding (tested: 5-175 nM)

B2: clone 17 monoclonal antibody (rat anti-MCAM) (antibody, V domains shown)
VH: EVQLVESGGGLVQPGRSLKLSCAASGFTFSNYYMAWVRQAPTKGLEWVASISFEGNRNHYGDSVKGRITISRDNAKSTLYLQMTSLRPEDTATYYCARHRGYSTNFYHDVLDAWGQGALVTVSS
VL: DVQMTQSPSYLATSPGESVSISCKASKNIDTYLAWYQEKPGKTNKLLIYSGSTLQSGTPSRFSGSGSGTDFTLTIRNLESEDFAVYYCQQHNEYPLTFGSGTKLEIKR
notes: Rat monoclonal from a hybridoma (Lou/M rats immunized with murine MCAM-Fc); also called anti-MCAM clone 17
binding result [3]: binds | binding result [4]: binds | binding result [5]: binds | binding result (Ig2 domain): no binding (tested: 5 ug/ml) | binding result [6]: binds | binding result [7]: binds
